Results on one substance are retold here after patent publication CN117567617A.

This assay concerns the target CLDN18.2 (species not stated). The assay can be described thus: affinity measurement, method not described.

In general, Kd refers to the concentration at which binding is half-saturated. Higher therefore signals lower affinity. Turning to “IMAB362 (Zolbetuximab), positive control antibody”, the Kd is 4.17 nM.
